The text below walks through data of patent US20250282828A1, “PEPTIDES FOR THE TREATMENT OF RESPIRATORY INFECTIONS OF VIRAL ORIGIN” (CENTRO DE INGENIERÍA GENÉTICA Y BIOTECNOLOGÍA, priority 2020, published 2025).

Where two headings read alike, the source gives them in different places. Positions of bridges follow the written chain, without caps; N, C: chain ends. Residues, ends and D or L forms follow the SMILES beside them. No end group written: not given here.

Assay [1] deals with SARS-CoV-2.
For assay [2], the system named is SARS-CoV-2. Put plainly: microbe, parasite or virus in culture. The conditions noted are these: Severe acute respiratory syndrome coronavirus 2, Vero C1008, read-out: IC50 Compound.
In assay [3] the test system is SARS-CoV-2. To be noted: 96 h, 100 μM.
In assay [4] the test system is SARS-CoV-2. The source holds these as a separate data set.
The test system of a further assay is viral proteins. Put plainly: BIACORE surface plasmon resonance interaction, all proteins evaluated. The assay is classed as binding. In general terms: Surface plasmon resonance follows binding to a sensor surface in real time, without labels.
Assay [5] concerns the target T1, Dengue 2 virus capsid protein (Dengue virus 2), P29990.
T1 chain: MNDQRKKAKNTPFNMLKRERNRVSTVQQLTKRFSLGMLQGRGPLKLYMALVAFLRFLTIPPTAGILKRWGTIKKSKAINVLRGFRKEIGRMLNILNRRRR

Assay [6] has as its target T2, envelope protein of the Zika virus (ZIKV E) (Zika virus), Q32ZE1.
T2 chain: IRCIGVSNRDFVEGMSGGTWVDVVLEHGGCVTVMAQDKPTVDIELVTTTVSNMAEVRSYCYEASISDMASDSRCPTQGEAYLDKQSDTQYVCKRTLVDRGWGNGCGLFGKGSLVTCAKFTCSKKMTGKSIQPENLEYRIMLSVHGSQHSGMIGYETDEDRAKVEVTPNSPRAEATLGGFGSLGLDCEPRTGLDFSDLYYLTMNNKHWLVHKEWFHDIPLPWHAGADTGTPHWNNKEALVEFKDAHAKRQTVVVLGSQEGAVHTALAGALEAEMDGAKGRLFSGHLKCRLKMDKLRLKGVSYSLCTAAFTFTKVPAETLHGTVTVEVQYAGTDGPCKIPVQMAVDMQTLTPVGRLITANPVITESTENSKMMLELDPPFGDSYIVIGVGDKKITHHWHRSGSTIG

Assay [7] deals with T3, non-structural protein 1 of the Dengue virus 2 (NS1-D2) (Dengue virus 2), P29990.
T3 chain: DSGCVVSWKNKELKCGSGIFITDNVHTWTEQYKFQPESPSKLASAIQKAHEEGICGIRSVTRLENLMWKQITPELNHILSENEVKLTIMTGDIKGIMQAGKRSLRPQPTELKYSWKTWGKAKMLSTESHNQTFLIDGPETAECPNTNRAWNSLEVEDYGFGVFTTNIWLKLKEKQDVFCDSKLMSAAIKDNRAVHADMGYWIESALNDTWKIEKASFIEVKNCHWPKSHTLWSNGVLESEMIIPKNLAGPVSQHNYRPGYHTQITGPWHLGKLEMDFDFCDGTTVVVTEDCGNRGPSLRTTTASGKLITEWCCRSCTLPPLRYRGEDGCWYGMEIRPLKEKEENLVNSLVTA

Assay [8] addresses T1, Dengue 2 virus capsid protein (Dengue …). Nature of the assay: SPR (BIACORE); Peptide SEQ ID NO: 1.
Assay [9] addresses T4, nucleocapsid protein of the SARS-CoV-2 virus (N protein) (SARS-CoV-2), P0DTC9. Nature of the assay: SPR (BIACORE); Peptide SEQ ID NO: 1.
For assay [10], the target named is T4, nucleocapsid protein of the SARS-CoV-2 ….
Assay [11] concerns the target T2, envelope protein of the Zika virus …. Put plainly: SPR (BIACORE).
Assay [12] addresses T1, Dengue 2 virus capsid protein (Dengue …). Nature of the assay: SPR (BIACORE).
Assay [13] addresses T4, nucleocapsid protein of the SARS-CoV-2 …. Nature of the assay: SPR (BIACORE).
Assay [14] has as its target T1, Dengue 2 virus capsid protein (Dengue …). Nature of the assay: SPR (BIACORE); Peptide SEQ ID NO: 2.
Assay [15] has as its target T4, nucleocapsid protein of the SARS-CoV-2 …. Put plainly: SPR (BIACORE); Peptide SEQ ID NO: 2.

As for Ivermectin, the IC50 (as a rule, the midpoint of a concentration-inhibition curve) in the assay with SARS-CoV-2 [1] (read-out: IC50 Compound + peptide SEQ ID NO: 1, in presence of peptide SEQ ID NO: 1 at 10 μM, VeroE6) is 210 nM; in the assay on SARS-CoV-2 [1] (read-out: IC50 Compound + peptide SEQ ID NO: 2, in presence of peptide SEQ ID NO: 2, VeroE6) it was 150 nM; in the assay on SARS-CoV-2 [1] (read-out: IC50 Compound + peptide SEQ ID NO: 3, in presence of peptide SEQ ID NO: 3, VeroE6), 200 nM; with SARS-CoV-2 [1] (read-out: IC50 Compound, compound alone, VeroE6), 2700 nM.

In the case of `CCC(CC)COC(=O)[C@H](C)N[P@](=O)(OC[C@H]1O[C@@](C#N)(c2ccc3c(N)ncnn23)[C@H](O)[C@@H]1O)Oc1ccccc1` [Remdisivir], the IC50 in the assay on SARS-CoV-2 [2] worked out at 2400 nM.

With `N=C(N)c1ccc2cc(OC(=O)c3ccc(N=C(N)N)cc3)ccc2c1` [Nafamostat], in the assay on SARS-CoV-2 [2], the 50% inhibitory concentration (IC50) is 20100 nM.

Consider `NC(=O)c1nc(F)c[nH]c1=O` [Favipiravir], for which the IC50 in the assay with SARS-CoV-2 [2] worked out at 65300 nM.

`CSCC[C@@H]1NC(=O)[C@H](Cc2c[nH]c3ccccc23)NC(=O)[C@@H](NC(=O)[C@H](C)NC(=O)[C@H](CCC(N)=O)NC(=O)[C@@H]2CCCN2C(=O)[C@@H]2CCCN2C(=O)[C@H](CCCNC(=N)N)NC(=O)[C@H](CCCNC(=N)N)NC(=O)[C@H](CCCNC(=N)N)NC(=O)[C@H](CCC(N)=O)NC(=O)[C@H](CCCNC(=N)N)NC(=O)[C@H](CCCNC(=N)N)NC(=O)[C@H](CCCCN)NC(=O)[C@H](CCCCN)NC(=O)[C@H](CCCNC(=N)N)NC(=O)CN)CSSC[C@@H](C(=O)O)NC(=O)[C@H]([C@@H](C)O)NC(=O)CNC(=O)[C@H](CC(C)C)NC(=O)[C@H](Cc2c[nH]cn2)NC(=O)[C@H](CCCNC(=N)N)NC(=O)[C@@H]2CCCN2C(=O)[C@H](CO)NC1=O` [Peptide SEQ ID NO: 23] (H-GRKKRRQRRRPPQACWMSPRHLGTC-OH; disulfide 15-25; N-terminus and C-terminus assumed) had a half-inhibitory concentration (IC50) in the assay on SARS-CoV-2 [1] of 3800 nM.

`NC(=O)c1ncn([C@@H]2O[C@H](CO)[C@@H](O)[C@H]2O)n1` [Ribavirin]: the 50% inhibitory concentration (IC50) in the assay on SARS-CoV-2 [2] turned out to be 40200 nM.

In turn, RVTQMNLNDRLASLADKV [SEQ ID NO: 22] yielded an Inhibition % in the assay with SARS-CoV-2 [3] of 20.2%. The “inhibition of SARS-CoV-2 in primary cultures of human airway epithelium” value in the assay on SARS-CoV-2 [4] is at most 20%. Moreover, the “interaction with the proteins evaluated” value in the assay on viral proteins is “did not interact”.

With RVTQMNLNDRLASLYDKV (modifications not checked) [peptide identified in the Sequence Listing as SEQ ID NO: 1], the Kd (usually the free concentration of one partner at which half of the binding sites on the other are occupied at equilibrium, for simple one-to-one binding) in [5] was 1.67 nM; in assay [6], 1590 nM; in assay [7], 769 nM; in assay [8], 1.67 nM; in assay [9] it was 3.58 nM; in assay [10], 3.58 nM. The Kd in assay [11] was determined as 1590 nM. Besides, the koff (in general, the rate constant with which the complex falls apart) in [5] was 0.000413 s⁻¹; in assay [6], 0.00154 s⁻¹; in assay [7] it was 1.02e-05 s⁻¹; in [10], 0.000972 s⁻¹. The values for the kon in assay [5], in assay [6] and in assay [10] were 247000 M⁻¹ s⁻¹, 965 M⁻¹ s⁻¹ and 271000 M⁻¹ s⁻¹, respectively.

For NDRLASLYDKV (modifications not checked) [Peptide SEQ ID NO: 14], the values for the Kd in assay [12], in [11] and in assay [13] were 5910 nM, 3200 nM and 1140 nM, respectively.

As for RVTQMNLNDRLASLYDKV (modifications not checked) [Peptide SEQ ID NO: 2], the Kd in [14] was determined as 754 nM; in assay [15], 523 nM; in assay [11], 18200 nM.

As for NLNDRLASLYDKV (modifications not checked) [Peptide SEQ ID NO: 15], the equilibrium dissociation constant (Kd) in [12] worked out at 1270 nM; in [11], 62.4 nM; in [13], 7820 nM.
